The values that follow come from patent publication US20250387450A1 (AIKIUM, published 2025).

Where only a bound is given, the exact number is not on record here.

The target in assay [1] is T1, CD74 disordered region peptide (CLIP), PPKPVSKMRMATPLLMQALPMGALP (biotin label).
T1 construct: also called CD74 Peptide
T1 peptide: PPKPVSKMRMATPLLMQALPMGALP
Put plainly: modified sandwich ELISA, fluorescence grade by the table's key. The method, then:
(§1) Binder proteins were coated on the surface of a high binding capacity 96 well plate by incubating 100 μL of protein at 5 μg/mL in a coating solution (10 mM Tris pH 8.8, 50 mM NaCl), overnight at 4 C. The next morning, the coating solution was aspirated out and wells were washed once with 300 μL ELISA wash buffer (1×PBS, 0.05% Tween-20) and solution was aspirated out. The wells were blocked with 200 μL of a blocking buffer (1×PBS, 0.05% Tween-20, 3% BSA) at room temperature for 1 hour. After one hour, the blocking solution was aspirated out and 100 μL of biotinylated polypeptide in a binding buffer (1×PBS, 0.05% Tween-20, 0.5% BSA) at various concentrations was added to the appropriate well and incubated for 20 minutes. Peptide solution was aspirated out after 20 minutes and wells were washed 5 times with 300 μL of ELISA wash buffer. To detect the biotinylated peptide, 100 μL of streptavidin-HRP (50 ng/ml) was added to each well and incubated for 1 hour. The wells were subsequently washed 5 times with 300 μL of ELISA wash buffer. 100 μL of QuantaBlu Fluorogenic Peroxidase substrate solution was added to each well, incubated for 30 minutes and reaction stopped by adding 100 μL of stop solution. Fluorescent signal from each well was measured using a Biotek Cytation5 plate reader by exciting the fluorophore at […] and measuring emission at 420 nm. Fluorescent signals were plotted as a function of polypeptide concentration.
On the technique in general: An ELISA detects its analyte on a solid surface through an enzyme-linked reagent.

The target in assay [2] is T2, CYSLTR2 N-terminal disordered region peptide, MERKFMSLQPSISVSEMEPNGTFSNNNSRNCTIENFKREFFP (biotin label).
T2 construct: also called CysLT2; CysLT2r
T2 peptide: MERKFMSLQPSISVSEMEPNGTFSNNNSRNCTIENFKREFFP
The experiment in a line: ELISA: scaffold coated on plate, biotinylated peptide titrated, streptavidin-HRP fluorescence. How it is done: as §1

In assay [3] the target is T3, KAAG1 disordered region peptide, PGAAAAHLPRWPPPQLAASRREA (biotin label).
T3 construct: also called KAAG1 Peptide
T3 peptide: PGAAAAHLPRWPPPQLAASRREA
Described as above. How it is done:
as §1

The target in assay [4] is T4, CYSLTR2 short linear epitope peptide, SISVSEMEPNGTFSNNNSRNC (N-terminal biotin).
T4 peptide: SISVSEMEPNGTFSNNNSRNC
Described as above. The method, then: as §1

Assay [5] deals with T5, GMERKFMSLQPSISVSEMEPNGTFSNNNSRNCTIENFKREFFP (biotinylated, position not given).
T5 construct: also called CYSLTR2 (longer peptide of the disordered region)
T5 peptide: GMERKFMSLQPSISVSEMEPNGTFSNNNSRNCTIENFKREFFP
The description is as above. The method, then:
as §1

Assay [6] deals with T6, TNFRSF13B disordered region peptide, LPPELRRQRSGEVENNSDNSGRYQ (biotin label).
T6 construct: also called TNFRSF13B Peptide
T6 peptide: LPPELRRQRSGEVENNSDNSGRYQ
Described as above. How it is done:
as §1

Assay [7] addresses T7, CD40LG short linear epitope peptide, NKEETKKENSFEMQKGDQNPQIAAH (biotin label).
T7 construct: also called CD40LG Peptide
T7 peptide: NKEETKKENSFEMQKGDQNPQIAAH
The assay is described as above. How it is done: as §1

Assay [8] concerns the target T8, KCNA6 short linear epitope peptide, QQQEQQPASGGGGQNGQQAMS (biotin label).
T8 construct: also called KCNA6 Peptide
T8 peptide: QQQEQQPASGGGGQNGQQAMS
The assay is described as above. The method, then:
as §1

Assay [9] addresses T9, Urotensin-2 receptor N-terminal peptide, MALTPESPSSFPGLAATGSSVPEPPGGPNATLNSSWASPTEPSSLEDLVATGTI (biotin label).
T9 construct: also called Urotensin IIR; GPCR2 (Urotensin II)
T9 peptide: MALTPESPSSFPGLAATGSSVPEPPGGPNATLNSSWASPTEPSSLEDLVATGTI
Put plainly: modified sandwich ELISA, grade by the table's key. How it is done:
as §1

In assay [10] the target is T6, TNFRSF13B disordered region peptide, …. Put plainly: modified sandwich ELISA, grade by the table's key. How it is done:
as §1

Assay [11] deals with T3, KAAG1 disordered region peptide, …. Put plainly: modified sandwich ELISA, grade by the table's key. How it is done: as §1
Assay [12] addresses T2, CYSLTR2 N-terminal disordered region …. The experiment in a line: modified sandwich ELISA, fluorescence grade by the table's key. The method, then:
as §1

Assay [13] deals with T3, KAAG1 disordered region peptide, …. The assay is described as above. How it is done:
as §1

B1: engineered scaffold protein S164 (designed binder)
chain: GIKEEHSIRQNEKYNNPDQSGNFEFHLDGQPIFRVDMQKKRTKWQLEEFGRFASFEAQGALANIAVFKINLEIMTKRSNQSEAGSHSWQLNFTCEFHEGTESVRLSERSYYNQENFVSFNSDVGEYRATTELGRPMAEYVNSQKDTLEQRRAAVDTYCRHNYGVGEYFTVQRR
Take B1: the fluorescent signal in assay [1] is more than 400000 fluorescentsignal. Further, the binding result in assay [2] and in assay [3] was “no binding (tested: 10000 nM)” each time.

B2: engineered scaffold protein S194 (designed binder)
chain: MGIKEEHVINQAEYYLNPDQSGEFKFDFDGDEIFHVDMAKKETVWRLEEFGRFASFEAQGALAHIAVDKANLEIMTKRSNYTPMGGGSKARMATGALAQAGGSGGSGDTRPRFLWQLKYECHFFNGTERVRLNERCIYNQEESVRFDSDVGEYRAVTELGRPDAEQWNSQKDHLEQRRAAVDTKCRHNYGVGESFTVQGGSHHHHHH
Regarding B2, the binding result is on record as “binds” in assay [4]; “binds” in assay [5]; “no binding (tested: 10000 nM)” in [6]; “no binding (tested: 10000 nM)” in [7]; “no binding (tested: 10000 nM)” in assay [3]; “no binding (tested: 10000 nM)” in [8].

B3: engineered scaffold protein S077 (designed binder)
chain: KPVSKMRMATPLLMQALPMASGGGGSGGGGDTRPRFLWQLKFECHFFNGTERVRLLERCIYNQEESVRFDSDVGEYRAVTELGRPDAEYWNSQKDLLEQRRAAVDTYCRHNYGVGESFTVQRRSGGGIKEEHVIIQAEFYLNPDQSGEFMFDFDGDEIFHVDMAKKETVWRLEEFGRFASFEAQGALANIAVDKANLEIMTKRSNYTGGSHHHHHHLE
Regarding B3, the binding result in assay [9] is reported as “no binding (tested: <5000 (fluorescence, key))”; in assay [10], “no binding (tested: <5000 (fluorescence, key))”; in assay [11] it was “no binding (tested: <5000 (fluorescence, key))”. Moreover, the fluorescent signal in assay [12] is 100000 to 250000 fluorescentsignal; in [1], more than 400000 fluorescentsignal.

B4: engineered scaffold protein S078 (designed binder)
chain: GDTRPRFLWQLKFECHFFNGTERVRLLERCIYNQEESVRFDSDVGEYRAVTELGRPDAEYWNSQKDLLEQRRAAVDTYCRHNYGVGESFTVQRRSGGGIKEEHVIIQAEFYLNPDQSGEFMFDFDGDEIFHVDMAKKETVWRLEEFGRFASFEAQGALANIAVDKANLEIMTKRSNYTGGSHHHHHHLE
Take B4: the binding result in assay [9] is “no binding (tested: <5000 (fluorescence, key))”; in assay [10], “no binding (tested: <5000 (fluorescence, key))”; in assay [11], “no binding (tested: <5000 (fluorescence, key))”. The figures for the fluorescent signal in assay [12] and in assay [1] were 50000 to 100000 fluorescentsignal and more than 400000 fluorescentsignal, respectively.

B5: engineered scaffold protein S055 (designed binder)
chain: GSHSMRYNYTSVSRPGRGEPRFLSEGHVDDTQFVRFDSDAASPREEPRAPWIEQEGPEYWDRNTQIYKAQAQTDRESLRNLRGYYNQSEAGSHTLQSIYGCDVGPDGRLLRGHDQYYYDGKDYISLNEDLRSWTAADTAAQITQRKWEAAREAEQRRAYLEGECVEWLRRYLENGKDKLERADGGSHHHHHHLE
As for B5, the fluorescent signal in assay [13] is 50000 to 100000 fluorescentsignal; in assay [1], more than 400000 fluorescentsignal.

B6: engineered scaffold protein S056 (designed binder)
chain: GSHSMRYNYTSVSRPGRGEPRFLSEGHVDGQPFVRFDSDAASPREEPRAPWIEQEGPEYWDRNTQIYKAQAQTDRESLRNLRGYYNQSEAGLHSLNSIYVCDVGPDGRLLRGHDHYYYDGELYISLNEDLRSWTAADTAAQITQRKWEAAREAEQRRAYLEGECVEWLRRYLENGKDKLERADGGSHHHHHHLE
For B6, the fluorescent signal in [13] is 50000 to 100000 fluorescentsignal; in assay [1], more than 400000 fluorescentsignal.

B7: engineered scaffold protein S171 (designed binder)
chain: GDTRPRFLWQLKWECHFYNGTERVRLNERCNYNQEESVRFDSDVGEYRAVTELGRPDAEFSNSQKDNLEQRRAAVDTLCRHNYGVGESFTVQRRSGGGIKEEHVINQAEYYLNPDQSGEFKFDFDGDEIFHVDMAKKETVWRLEEFGRFAIIEAYGALANIAVDKANLEIMTKQSNYT
Take B7: in [1], the fluorescent signal is more than 400000 fluorescentsignal. Also, the binding result in [2] and in assay [3] was “no binding (tested: 10000 nM)” each time.

B8: engineered scaffold protein S193 (designed binder)
chain: MGSKARMATGALAQAGGSGGSMIKEEHVINQAEYYLNPDQSGEFKFDFDGDEIFHVDMAKKETVWRLEEFGRFASFEAQGALAHIAVDKANLEIMTKRSNYTPMGDTRPRFLWQLKYECHFFNGTERVRLNERCIYNQEESVRFDSDVGEYRAVTELGRPDAEQWNSQKDHLEQRRAAVDTKCRHNYGVGESFTVQGGSHHHHHH
Consider B8, for which the binding result in [4] is “binds”; in assay [5] it was “binds”; in [6], “no binding (tested: 10000 nM)”; in [7] it was “no binding (tested: 10000 nM)”; in assay [3] it was “no binding (tested: 10000 nM)”; in [8], “no binding (tested: 10000 nM)”.

B9: S180 (designed binder)
single chain: MKEEHVIIQAEFYLNPDQSGEFMFDFDGDEIFHVDMAKKETVWRLEEFGRFASFEAQGALANIAVDKANLEIMTKRSNYTPITNTRPRFLWQPKRECHFFNGTERVRFLDRYFYNQEESVRFDSDVGEFRAVTELGRPDAEYWNSQKDILEQARAAVDTYCRHNYGVVESFTVQRRVQGGSHHHHHHLE
notes: also called engineered scaffold protein S180
As for B9, the binding result in [4] and in assay [5] was “binds” in each case.

B10: S189 (designed binder)
single chain: MGIKEEHVINQAEYCLNPDQSGEFKFDFDGDEIFHVDMAKKETVWRLEEFGRFASFEAQGALAHIAVDCANLEIMTKRSNYTPMGDTRPRFLWQLKYECHFFNGTERVRLNERCIYNQEESVRFDSDVGEYRAVTELGRPDAEQWNSQKDHLEQRRAAVDTKCRHNYGVGESFTVQGGSHHHHHH
notes: also called engineered scaffold protein S189
In the case of B10, the binding result in assay [4] and in assay [5] was “binds” in each case.
